Reference: patent US8173771B2, “Humanin receptor or humanin-like polypeptide receptor” (Keio Univeristy, priority 2005, dated 2012)

T1: HN receptor (HNR; CNTF-R/WSX-1/gp130) on F11 cells (Mus musculus, UniProt O70394+O88507)
T1 construct: endogenous in cells; host or cells: F11 neurohybrid cells
T1 sequence (O70394 25-623): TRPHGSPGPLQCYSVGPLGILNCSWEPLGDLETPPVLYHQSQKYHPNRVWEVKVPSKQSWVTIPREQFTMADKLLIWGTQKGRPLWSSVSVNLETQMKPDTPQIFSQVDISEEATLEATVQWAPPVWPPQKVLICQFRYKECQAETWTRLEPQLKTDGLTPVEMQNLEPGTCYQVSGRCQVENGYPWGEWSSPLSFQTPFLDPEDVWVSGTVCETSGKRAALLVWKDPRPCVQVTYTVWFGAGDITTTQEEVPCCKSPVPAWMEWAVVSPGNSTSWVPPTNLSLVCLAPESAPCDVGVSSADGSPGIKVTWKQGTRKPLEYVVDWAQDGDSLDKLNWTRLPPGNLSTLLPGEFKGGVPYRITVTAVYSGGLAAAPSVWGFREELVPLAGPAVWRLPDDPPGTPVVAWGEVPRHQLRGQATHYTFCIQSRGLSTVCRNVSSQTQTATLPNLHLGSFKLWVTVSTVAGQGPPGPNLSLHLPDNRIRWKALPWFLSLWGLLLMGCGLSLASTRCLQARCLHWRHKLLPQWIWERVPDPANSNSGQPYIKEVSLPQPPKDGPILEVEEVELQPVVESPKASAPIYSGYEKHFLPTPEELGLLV
T1 sequence (O88507 23-342): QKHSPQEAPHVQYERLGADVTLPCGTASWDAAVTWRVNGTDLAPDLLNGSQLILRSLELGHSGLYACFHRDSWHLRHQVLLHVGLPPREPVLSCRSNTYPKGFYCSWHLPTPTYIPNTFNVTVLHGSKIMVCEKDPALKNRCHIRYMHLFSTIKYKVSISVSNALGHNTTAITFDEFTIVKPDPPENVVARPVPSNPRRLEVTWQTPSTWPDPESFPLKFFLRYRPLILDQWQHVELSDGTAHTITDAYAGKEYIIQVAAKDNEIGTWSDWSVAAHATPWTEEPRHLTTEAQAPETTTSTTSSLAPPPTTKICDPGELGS
T1 sequence (Q00560 23-917 partner): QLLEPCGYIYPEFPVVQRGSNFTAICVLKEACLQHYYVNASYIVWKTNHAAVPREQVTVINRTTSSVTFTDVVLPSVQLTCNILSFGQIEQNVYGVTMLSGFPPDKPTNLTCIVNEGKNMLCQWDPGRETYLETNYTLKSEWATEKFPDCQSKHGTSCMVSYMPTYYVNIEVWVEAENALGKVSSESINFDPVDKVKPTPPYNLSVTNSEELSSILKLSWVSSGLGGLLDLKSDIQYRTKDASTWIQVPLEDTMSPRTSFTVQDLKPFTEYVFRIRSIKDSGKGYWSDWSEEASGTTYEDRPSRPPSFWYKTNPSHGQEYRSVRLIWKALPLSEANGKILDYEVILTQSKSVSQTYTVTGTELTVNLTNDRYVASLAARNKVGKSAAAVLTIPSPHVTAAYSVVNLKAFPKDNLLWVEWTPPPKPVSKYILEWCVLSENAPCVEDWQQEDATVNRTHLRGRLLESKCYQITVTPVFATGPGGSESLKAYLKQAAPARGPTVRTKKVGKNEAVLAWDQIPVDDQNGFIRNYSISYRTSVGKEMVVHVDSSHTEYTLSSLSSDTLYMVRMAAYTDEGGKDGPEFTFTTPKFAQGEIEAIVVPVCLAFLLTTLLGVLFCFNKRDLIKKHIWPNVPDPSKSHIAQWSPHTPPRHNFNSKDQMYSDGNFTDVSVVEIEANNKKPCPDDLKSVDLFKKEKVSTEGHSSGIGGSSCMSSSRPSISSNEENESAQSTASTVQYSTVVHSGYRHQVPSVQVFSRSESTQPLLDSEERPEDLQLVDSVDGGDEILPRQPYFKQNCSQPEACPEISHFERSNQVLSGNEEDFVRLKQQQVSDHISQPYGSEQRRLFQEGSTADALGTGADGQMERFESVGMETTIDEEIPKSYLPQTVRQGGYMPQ


Assays:
[1] = target: T1, HN receptor (HNR; CNTF-R/WSX-1/gp130) on F11 cells; assay: Immunofluorescence-based binding assay (2): biotin-HN / biotin-HNG binding to F11 cells; conditions: biotin-HN; F11 cells with endogenous HNR or transfected with CNTF-R/WSX-1/gp130
Protocol: A) F11 cells were seeded on 96-well plates coated with poly-L-lysine (7×10^3 cells/well). An indicated amount of biotin-HN or biotin-HNG was added to the cells with or without 10 μM of unlabelled HNG or HNA, followed by a binding assay based on immunofluorescence reaction (2) (left panels). On the other hand, F11 cells were transfected with 0.5 μg of pcDNA3.1/GS-human CNTF-R, pEF1/MycHis-human WSX-1, and 1.0 μg of pCAG-human gp130. At 24 hrs after the transfection, the cells were re-seeded on 96-well plates coated with poly-L-lysine (7×10^3 cells/well). After 36 hrs the re-seeding, an indicated amount of biotin-HN or biotin-HNG was added to the cells with or without 10 μM of unlabeled HNG or HNA, followed by a binding assay based on immunofluorescence reaction (2) (right panels).
B) F11 cells were transfected with 0.5 μg of pRNA-U1.6/Shuttle vector, pRNA-U6.1/Shuttle-WSX-1 siRNA, pRNA-U6.1/Shuttle-CNTF-R siRNA, both pRNA-U6.1/Shuttle-WSX-1 siRNA and pRNA-U6.1/Shuttle-CNTF-R siRNA (0.5 μg each), pRNA-U6.1/Shuttle-FPR2 siRNA or pRNA-U6.1/Shuttle-LIFR siRNA. The total amount of vectors was adjusted to be 1.0 μg by including a backbone vector. At 24 hrs after the transfection, an indicated amount of biotin-HNG was added with or without unlabeled HNG, followed by a binding assay based on immunofluorescence reaction (2) at 72 hrs after the transfection.
E) F11 cells on 6-well plate (7×10^4 cells/well) were transfected with 1.0 μg of pRNA-U6.1/Shuttle vector, pRNA-U6.1/Shuttle-Bax siRNA, or both pRNA-U6.1/Shuttle-WSX-1 siRNA and pRNA-U6.1/Shuttle-CNTF-R siRNA (0.5 μg each). At 72 hrs after the transfection, the cells were added with an indicated amount of biotin-HN with or without unlabeled HN or HNA (100 μM) and subjected to an HN-binding assay based on immunofluorescence.
F11 cells (7×10^4/well in 6-well plates) were replated into 96-well plates (7×10^3 cells/well) at 24 hrs after transfection with indicated amounts of the plasmids encoding mycHis-WSX or V5-CNTF-R, and with PCAG-human gp130 if required. At 36 hrs after transfection, the cells were added with biotin-labeled HN or HNG of indicated concentrations in the presence or the absence of HNG (S14G-HN) or HNA (C8A-HN) of indicated concentrations (Hashimoto et al., 2001 a). After 6 hrs incubation, they were fixed with 4% paraformaldehyde in PBS for 30 min. After washing with PBS, cells were stained with FITC-conjugated avidin (Molecularprobe, Eugene, Oreg., USA). Immunofluorescence intensity was measured (excitation=485 nm, emission=535 nm) with a spectrofluorometer (Wallac1420 ARVOsx Multi Label Counter). Immunohistochemical analysis was done with a laser-scanning, confocal microscope LSM (Carl Zeiss, Germany).

[2] = system: primary cortical neurons (PCNs); assay: Aβ neurotoxicity in primary cortical neurons, WST-8 / Calcein / LDH; type: cell-based, mouse
Protocol: B) PCNs were incubated with 25 μM Aβ (upper) in the presence of 10 μg of recombinant soluble human gp130 (lower “+”) or BSA (lower “−”). Cell viability was determined by WST-8 assay (upper) or Calcein fluorescence assay (lower) at 72 hr after the onset of treatment with Aβ.
C) PCNs were incubated with 25 μM Aβ (1-43) in the presence of 1 μg of neutralizing anti-mouse gp130 antibody (RX435) or control IgG. Cell viability and cell mortality were determined by Calcein fluorescence (left panel) and LDH assays (right panel), respectively, at 72 hr after the onset of treatment with Aβ (1-43).
[…] At 72 hr after incubation, the cells were harvested for WST-8 assays or/and Calcein fluorescence assays to show cell viability.
B) The soluble IL-6 receptor-α (sIL-6R) or the soluble CNTF-R (100 ng/ml) were added to the cells as in the above A), followed by the stimulation with its ligand, IL-6 or CNTF (100 ng/ml), respectively to show the effects on the neuronal cell death due to Aβ. The right and left graphs show the cell viabilities determined by WST-8 assays and Calcein fluorescence assays, respectively.
C) The neutralizing antibodies (1 μg) for the mouse gp130, mouse LIFR, mouse IL-11R and rat CNTF-R were added as in the above A), and cell viability was determined by Calcein fluorescence assays after 72 hours.
WST-8 assay was performed at 72 hrs after the treatment.
The primary culture of mouse cortical neurons was prepared as described previously (Sudo et al., 2000). Briefly, primary cortical neurons, obtained from embryonic day 14 (E14) ICR mice were seeded in poly-L-lysine-coated 96 well plates (Sumitomo Bakelite) at 2.5 or 5.0×10^4 cells/well in Neuron Medium (Sumitomo Bakelite) (Hashimoto et al., 2003; Niikura et al., 2004). Purity of neurons by this method was >98%. After 3 days, the culture medium was replaced with DMEM with N2 supplement. On the fourth day in vitro, 25 μM of Aβ (1-42) was added in association with indicated concentrations of HN or cytokines in the presence or the absence of soluble cytokine receptors or neutralizing antibodies. At 72 hrs after the onset of treatment, cell viability was assessed by WST-8 assay and/or Calcein fluorescence assay and cell mortality was assessed by the Trypan blue exclusion assay and LDH assay (Hashimoto et al, 2000, 2001 a b, 2003).

STAT3 = assay: Immunoblot of phosphotyrosine 705 of STAT3 in F11 cells; type: cell-based; conditions: F11 cells, 15 min
Protocol: E) F11 cells were transfected with an indicated amount of pRNA-U6.1/Shuttle vector (empty), pRNA-U6.1/Shuttle-IL-6R siRNA, or pRNA-U6.1/Shuttle-LIFR siRNA. At 48 hrs after transfection, the cells were treated with 100 ng/ml IL-6, 100 ng/ml CNTF or 1 μM HNG at 37° for 15 min, and harvested. The results of immunoblot analysis using anti-phophoSTAT3 ([…]) antibody and anti-STAT3 antibody were shown in photos. A) F11 cells were added with an indicated amount of HN, HNG or HNA and harvested 15 min later for immunoblot analysis with antibodies recognizing phosphotyrosine 705 of STAT3 or STAT3. The results are shown in photos. B) F11 cells were transfected with 0.5 μg of pRNA-U1.6/Shuttle vector, pRNA-U6.1/Shuttle-WSX-1 siRNA, pRNA-U6.1/Shuttle-CNTF-R siRNA, both pRNA-U6.1/Shuttle-WSX-1 siRNA and pRNA-U6.1/Shuttle-CNTF-R siRNA (0.5 μg each), or pRNA-U6.1/Shuttle-FPR2 siRNA. The total amount of vectors was adjusted to be 1.0 μg by including a backbone vector. […] The results are shown in photos. Cell lysates (10-20 μg/lane) or pulled-down precipitates were subject to SDS-PAGE, and the proteins separated on the gel were transferred onto polyvinylidene difluoride membranes as described (Hashimoto et al, 2000). Visualization of the immunoreactive protein bands was performed by ECL (Amersham Pharmacia Biotech, Uppsala, Sweden).

Molecule	Kd [1] [µM]	effect on the HN effect ([2]; PCN, 10 nM HNG, 10 μM Aβ (1-43))	mimicry of HN in neuroprotection against neuronal cell death by Aβ ([2]; cytokine 100 ng/ml with its soluble receptor (sIL-6R or soluble CNTF receptor) 100 ng/ml)	inhibition of neurotoxicity by Aβ ([2]; cytokine alone, physiological levels (up to 100 ng/ml), 25 μM Aβ)	phosphorylation of tyrosine 705 of STAT3 (STAT3)
CC[C@H](C)[C@H](NC(=O)[C@H](CCC(=O)O)NC(=O)[C@H](CO)NC(=O)[C@@H](NC(=O)[C@H](CC(C)C)NC(=O)[C@H](CC(C)C)NC(=O)[C@H](CC(C)C)NC(=O)[C@H](CC(C)C)NC(=O)[C@H](CS)NC(=O)[C@H](CO)NC(=O)[C@H](Cc1ccccc1)NC(=O)CNC(=O)[C@H](CCCNC(=N)N)NC(=O)[C@@H]1CCCN1C(=O)[C@H](C)NC(=O)[C@@H](N)CCSC)[C@@H](C)O)C(=O)N[C@@H](CC(=O)O)C(=O)N[C@@H](CC(C)C)C(=O)N1CCC[C@H]1C(=O)N[C@H](C(=O)N[C@@H](CCCCN)C(=O)N[C@@H](CCCNC(=N)N)C(=O)N[C@@H](CCCNC(=N)N)C(=O)N[C@@H](C)C(=O)O)C(C)C [HN, Humanin]	1 to 10	–	–	–	–
CNTF: ciliary neurotrophic factor, recombinant cytokine (protein, UniProt P26441 1-200, looked up) Ciliary neurotrophic factor: MAFTEHSPLTPHRRDLCSRSIWLARKIRSDLTALTESYVKHQGLNKNINLDSADGMPVASTDQWSELTEAERLQENLQAYRTFHVLLARLLEDQQVHFTPTEGDFHQAIHTLLLQVAAFAYQIEELMILLEYKIPRNEADGMPINVGDGGLFEKKLWGLKVLQELSQWTVRSIHDLRFISSHQTGIPARGSHYIANNKKM	–	inhibited the HN effect	did not mimic HN	did not inhibit	increased
